# According to publication PMC3985934 (Biochemistry, 2014):
# Read-outs that look alike come from different tables or passages of the source.
# B1: Rhizobium etli pyruvate carboxylase, wild type (enzyme)
# chain: PISKILVANRSEIAIRVFRAANELGIKTVAIWAEEDKLALHRFKADESYQVGRGPHLARDLGPIESYLSIDEVIRVAKLSGADAIHPGYGLLSESPEFVDACNKAGIIFIGPKADTMRQLGNKVAARNLAISVGVPVVPATEPLPDDMAEVAKMAAAIGYPVMLKASWGGGGRGMRVIRSEADLAKEVTEAKREAMAAFGKDEVYLEKLVERARHVESQILGDTHGNVVHLFERDCSVQRRNQKVVERAPAPYLSEAQRQELAAYSLKIAGATNYIGAGTVEYLMDADTGKFYFIEVNPRIQVEHTVTEVVTGIDIVKAQIHILDGAAIGTPQSGVPNQEDIRLNGHALQCRVTTEDPEHNFIPDYGRITAYRSASGFGIRLDGGTSYSGAIITRYYDPLLVKVTAWAPNPLEAISRMDRALREFRIRGVATNLTFLEAIIGHPKFRDNSYTTRFIDTTPELFQQVKRQDRATKLLTYLADVTVNGHPEAKDRPKPLENAARPVVPYANGNGVKDGTKQLLDTLGPKKFGEWMRNEKRVLLTDTTMRDGHQSLLATRMRTYDIARIAGTYSHALPNLLSLECWGGATFDVSMRFLTEDPWERLALIREGAPNLLLQMLLRGANGVGYTNYPDNVVKYFVRQAAKGGIDLFRVFDCLNWVENMRVSMDAIAEENKLCEAAICYTGDILNSARPKYDLKYYTNLAVELEKAGAHIIAVKDMAGLLKPAAAKVLFKALREATGLPIHFHTHDTSGIAAATVLAAVEAGVDAVDAAMDALSGNTSQPCLGSIVEALSGSERDPGLDPAWIRRISFYWEAVRNQYAAFESDLKGPASEVYLHEMPGGQFTNLKEQARSLGLETRWHQVAQAYADANQMFGDIVKVTPSSKVVGDMALMMVSQDLTVADVVSPDREVSFPESVVSMLKGDLGQPPSGWPEALQKKALKGEKPYTVRPGSLLKEADLDAERKVIEKKLEREVSDFEFASYLMYPKVFTDFALASDTYGPVSVLPTPAYFYGLADGEELFADIEKGKTLVIVNQAVSATDSQGMVTVFFELNGQPRRIKVPDRAHGATGAAVRRKAEPGNAAHVGAPMPGVISRVFVSSGQAVNAGDVLVSIEAMKMETAIHAEKDGTIAEVLVKAGDQIDAKDLLAVYGG
# modifications: biotin prosthetic group (enzymic biotin; residue not given)
# B2: Rhizobium etli pyruvate carboxylase, H216N mutant (enzyme)
# chain: PISKILVANRSEIAIRVFRAANELGIKTVAIWAEEDKLALHRFKADESYQVGRGPHLARDLGPIESYLSIDEVIRVAKLSGADAIHPGYGLLSESPEFVDACNKAGIIFIGPKADTMRQLGNKVAARNLAISVGVPVVPATEPLPDDMAEVAKMAAAIGYPVMLKASWGGGGRGMRVIRSEADLAKEVTEAKREAMAAFGKDEVYLEKLVERARNVESQILGDTHGNVVHLFERDCSVQRRNQKVVERAPAPYLSEAQRQELAAYSLKIAGATNYIGAGTVEYLMDADTGKFYFIEVNPRIQVEHTVTEVVTGIDIVKAQIHILDGAAIGTPQSGVPNQEDIRLNGHALQCRVTTEDPEHNFIPDYGRITAYRSASGFGIRLDGGTSYSGAIITRYYDPLLVKVTAWAPNPLEAISRMDRALREFRIRGVATNLTFLEAIIGHPKFRDNSYTTRFIDTTPELFQQVKRQDRATKLLTYLADVTVNGHPEAKDRPKPLENAARPVVPYANGNGVKDGTKQLLDTLGPKKFGEWMRNEKRVLLTDTTMRDGHQSLLATRMRTYDIARIAGTYSHALPNLLSLECWGGATFDVSMRFLTEDPWERLALIREGAPNLLLQMLLRGANGVGYTNYPDNVVKYFVRQAAKGGIDLFRVFDCLNWVENMRVSMDAIAEENKLCEAAICYTGDILNSARPKYDLKYYTNLAVELEKAGAHIIAVKDMAGLLKPAAAKVLFKALREATGLPIHFHTHDTSGIAAATVLAAVEAGVDAVDAAMDALSGNTSQPCLGSIVEALSGSERDPGLDPAWIRRISFYWEAVRNQYAAFESDLKGPASEVYLHEMPGGQFTNLKEQARSLGLETRWHQVAQAYADANQMFGDIVKVTPSSKVVGDMALMMVSQDLTVADVVSPDREVSFPESVVSMLKGDLGQPPSGWPEALQKKALKGEKPYTVRPGSLLKEADLDAERKVIEKKLEREVSDFEFASYLMYPKVFTDFALASDTYGPVSVLPTPAYFYGLADGEELFADIEKGKTLVIVNQAVSATDSQGMVTVFFELNGQPRRIKVPDRAHGATGAAVRRKAEPGNAAHVGAPMPGVISRVFVSSGQAVNAGDVLVSIEAMKMETAIHAEKDGTIAEVLVKAGDQIDAKDLLAVYGG
# modifications: biotin prosthetic group (enzymic biotin; residue not given)
# Key:
# AUC [1] = target: the molecule itself; test: AUC
# AUC [2] = target: the molecule itself; test: AUC; remark: listed apart in the source
Protein,stoichiometry N (AUC [1]),stoichiometry N (AUC [2])
B1,4,4
B2,4,4
